Assay results: WO1996020011A1

Molecular target: LoVo tumour cells (carcinoembryonic antigen, the antigen of A5B7, on the cells) (human) (UniProt P06731)
Assay: binding of the 125I-labelled conjugate to LoVo tumour cells, method of Lindmo et al.

Sequence of UniProt P06731 (P06731 35-702): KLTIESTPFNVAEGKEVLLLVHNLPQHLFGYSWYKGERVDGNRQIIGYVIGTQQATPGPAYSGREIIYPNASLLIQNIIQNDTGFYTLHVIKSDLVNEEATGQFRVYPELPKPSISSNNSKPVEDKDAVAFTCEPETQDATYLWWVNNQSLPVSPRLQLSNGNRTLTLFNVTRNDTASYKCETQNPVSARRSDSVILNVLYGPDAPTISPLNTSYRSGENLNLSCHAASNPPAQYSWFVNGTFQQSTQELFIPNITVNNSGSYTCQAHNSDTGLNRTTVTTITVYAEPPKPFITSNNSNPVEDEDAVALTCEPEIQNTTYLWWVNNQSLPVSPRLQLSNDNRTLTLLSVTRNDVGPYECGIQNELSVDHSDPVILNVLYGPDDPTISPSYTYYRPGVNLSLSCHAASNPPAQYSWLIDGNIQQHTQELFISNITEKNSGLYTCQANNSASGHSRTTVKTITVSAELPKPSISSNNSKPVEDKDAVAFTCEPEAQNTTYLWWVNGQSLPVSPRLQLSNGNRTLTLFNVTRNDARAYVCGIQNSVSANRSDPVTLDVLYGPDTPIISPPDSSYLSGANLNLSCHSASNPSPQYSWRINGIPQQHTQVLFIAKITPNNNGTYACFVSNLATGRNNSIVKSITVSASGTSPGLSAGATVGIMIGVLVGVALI

Substance: murine A5B7 F(ab')2-bovine pancreatic ribonuclease conjugate, radioiodinated with 125I (from UniProt P61823 27-150)
- immunoreactivity retained after radioiodination: > 50%
